The subject of series [1] is HeLa Kyoto. The series can be described thus: solubility change mitosis vs G1/S (difference of NP-40 vs SDS log2 ratios) (log2 ratio difference); higher = more soluble in mitosis.
Series [2] relates to HeLa Kyoto. As to the kind of experiment: thermal stability score vs G1/S (z-score of summed log2 fold changes over temperatures); higher = more thermally stable than in G1/S.
Series [3] has as its system HeLa Kyoto. The series can be described thus: melting temperature (median over replicates), in situ; higher = more thermally stable.
For series [4], the system named is HeLa Kyoto. As to the kind of experiment: solubility in G1/S (NP-40 vs SDS abundance) (log2 ratio); higher = more soluble. As to conditions: cell cycle stage: G1/S.
Where [5] appears, read: cell cycle stage: early G1 (4.5 h after nocodazole release).
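Throughout, for melting temperature (median over replicates), in situ: HeLa Kyoto cells synchronized by double thymidine or nocodazole block, proteins quantified by TMT10plex mass spectrometry, three independent biological replicates.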
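Throughout, for solubility change mitosis vs G1/S (difference of NP-40 vs SDS log2 ratios): synchronized HeLa Kyoto cells (double thymidine block for G1/S, nocodazole release for mitosis), protein amounts in NP-40 versus SDS lysates quantified by mass spectrometry, three biological replicates.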
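Throughout, for solubility in G1/S (NP-40 vs SDS abundance): HeLa Kyoto cells arrested at G1/S by double thymidine block, proteins quantified by TMT10plex mass spectrometry in mild NP-40 versus SDS extracts, three biological replicates.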
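Throughout, for thermal stability score vs G1/S (z-score of summed log2 fold changes over temperatures): synchronized HeLa Kyoto cells, proteins quantified by TMT10plex mass spectrometry, three biological replicates, mitosis taken 0.5 h after nocodazole release, G1/S directly after double thymidine block.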

In the case of “MGNGMCSRKQKRIFQTLLLLTVVFGFLYGAMLYYELQTQLRKAEAVALKYQQHQESLSAQLQVVYEHRSRLEKSLQKERLEHKKAKEDFLVYKLEAQETLNKGRQDSNSRYSALNVQHQMLKSQHEELKKQHSDLEEEHRKQGEDFSRTFNDHKQKYLQLQQEKEQELSKLKETVYNLREENRQLRKAHQDIHTQLQDVKQQHKNLLSEHEQLVVTLEDHKSALAAAQTQVAEYKQLKDTLNRIPSLRKPDPAEQQNVTQVAHSPQGYNTAREKPTREVQEVSRNNDVWQNHEAVPGRAEDTKLYAPTHKEAEFQAPPEPIQQEVERREPEEHQVEEEHRKALEEEEMEQVGQAEHLEEEHDPSPEEQDREWKEQHEQREAANLLEGHARAEVYPSAKPMIKFQSPYEEQLEQQRLAVQQVEEAQQLREHQEALHQQRLQGHLLRQQEQQQQQVAREMALQRQAELEEGRPQHQEQLRQQAHYDAMDNDIVQGAEDQGIQGEEGAYERDNQHQDEAEGDPGNRHEPREQGPREADPESEADRAAVEDINPADDPNNQGEDEFEEAEQVREENLPDENEEQKQSNQKQENTEVEEHLVMAGNPDQQEDNVDEQYQEEAEEEVQEDLTEEKKRELEHNAEETYGENDENTDDKNNDGEEQEVRDDNRPKGREEHYEEEEEEEEDGAAVAEKSHRRAEM [GOLIM4]”, the “solubility change mitosis (log2)” value in series [1] was -0.0167. In addition, the thermal stability score was -2.18 in series [2] (setting [5]) and -3.71 in series [2] (cell cycle stage: mitosis). Besides, the melting temperature in series [3] (cell cycle stage: G1/S) amounted to 54 °C; in series [3] (cell cycle stage: mitosis), 53 °C. Also, the “solubility in G1/S (log2)” value in series [4] turned out to be 0.317.
Take RPE: the “solubility change mitosis (log2)” value in series [1] is 0.356. Further, the thermal stability score was -0.485 in series [2] (setting [5]) and -1.28 in series [2] (cell cycle stage: mitosis). For the same substance, the melting temperature in series [3] (cell cycle stage: G1/S) turned out to be 56 °C; in series [3] (cell cycle stage: mitosis), 55.2 °C. Also, in series [4], the “solubility in G1/S (log2)” value amounted to 0.306.
Consider “MAARLVSRCGAVRAAPHSGPLVSWRRWSGASTDTVYDVVVSGGGLVGAAMACALGYDIHFHDKKILLLEAGPKKVLEKLSETYSNRVSSISPGSATLLSSFGAWDHICNMRYRAFRRMQVWDACSEALIMFDKDNLDDMGYIVENDVIMHALTKQLEAVSDRVTVLYRSKAIRYTWPCPFPMADSSPWVHITLGDGSTFQTKLLIGADGHNSGVRQAVGIQNVSWNYDQSAVVATLHLSEATENNVAWQRFLPSGPIALLPLSDTLSSLVWSTSHEHAAELVSMDEEKFVDAVNSAFWSDADHTDFIDTAGAMLQYAVSLLKPTKVSARQLPPSVARVDAKSRVLFPLGLGHAAEYVRPRVALIGDAAHRVHPLAGQGVNMGFGDISSLAHHLSTAAFNGKDLGSVSHLTGYETERQRHNTALLAATDLLKRLYSTSASPLVLLRTWGLQATNAVSPLKEQIMAFASK [COQ6]”, for which the “solubility change mitosis (log2)” value in series [1] was -0.0137. The thermal stability score in series [2] (setting [5]) amounted to 1.7; in series [2] (cell cycle stage: mitosis), 2.05. Further, the melting temperature turned out to be 54.8 °C in series [3] (cell cycle stage: G1/S) and 55.1 °C in series [3] (cell cycle stage: mitosis). The “solubility in G1/S (log2)” value in series [4] was -0.0254.
As to RBBP6, in series [1], the “solubility change mitosis (log2)” value came out at 0.511. Besides, the thermal stability score was -2.06 in series [2] (setting [5]) and 3.66 in series [2] (cell cycle stage: mitosis). The melting temperature in series [3] (cell cycle stage: G1/S) was found to be 49 °C; in series [3] (cell cycle stage: mitosis), 49.9 °C. Also, in series [4], the “solubility in G1/S (log2)” value was -0.908.
For “MATEGDVELELETETSGPERPPEKPRKHDSGAADLERVTDYAEEKEIQSSNLETAMSVIGDRRSREQKAKQEREKELAKVTIKKEDLELIMTEMEISRAAAERSLREHMGNVVEALIALTN [HYPK]”, the “solubility change mitosis (log2)” value in series [1] is 0.208. Besides, the thermal stability score in series [2] (setting [5]) is -6.39; in series [2] (cell cycle stage: mitosis) it was -8.21. Also, the melting temperature in series [3] (cell cycle stage: G1/S) came to 54.4 °C; in series [3] (cell cycle stage: mitosis) it was 54 °C. For the same substance, the “solubility in G1/S (log2)” value in series [4] was 0.395.
As to ANKRD17, the “solubility change mitosis (log2)” value in series [1] amounted to 0.0244. For the same substance, the thermal stability score is -0.291 in series [2] (setting [5]) and 0.712 in series [2] (cell cycle stage: mitosis). Moreover, the melting temperature is 49.8 °C in series [3] (cell cycle stage: G1/S) and 49.9 °C in series [3] (cell cycle stage: mitosis). For the same substance, the “solubility in G1/S (log2)” value in series [4] was -0.13.
In the case of “MATSLGSNTYNRQNWEDADFPILCQTCLGENPYIRMTKEKYGKECKICARPFTVFRWCPGVRMRFKKTEVCQTCSKLKNVCQTCLLDLEYGLPIQVRDAGLSFKDDMPKSDVNKEYYTQNMEREISNSDGTRPVGMLGKATSTSDMLLKLARTTPYYKRNRPHICSFWVKGECKRGEECPYRHEKPTDPDDPLADQNIKDRYYGINDPVADKLLKRASTMPRLDPPEDKTITTLYVGGLGDTITETDLRNHFYQFGEIRTITVVQRQQCAFIQFATRQAAEVAAEKSFNKLIVNGRRLNVKWGRSQAARGKEKEKDGTTDSGIKLEPVPGLPGALPPPPAAEEEASANYFNLPPSGPPAVVNIALPPPPGIAPPPPPGFGPHMFHPMGPPPPFMRAPGPIHYPSQDPQRMGAHAGKHSSP [RBM22]”, the “solubility change mitosis (log2)” value in series [1] turned out to be 0.274. For the same substance, the values for the thermal stability score in series [2] (setting [5]) and in series [2] (cell cycle stage: mitosis) were -0.922 and -0.478, respectively. For the same substance, the melting temperature in series [3] (cell cycle stage: G1/S) worked out at 48.6 °C; in series [3] (cell cycle stage: mitosis), 49.8 °C. For the same substance, in series [4], the “solubility in G1/S (log2)” value was -0.116.
In the case of “MSAAGLLAPAPAQAGAPPAPEYYPEEDEELESAEDDERSCRGRESDEDTEDASETDLAKHDEEDYVEMKEQMYQDKLASLKRQLQQLQEGTLQEYQKRMKKLDQQYKERIRNAELFLQLETEQVERNYIKEKKAAVKEFEDKKVELKENLIAELEEKKKMIENEKLTMELTGDSMEVKPIMTRKLRRRPNDPVPIPDKRRKPAPAQLNYLLTDEQIMEDLRTLNKLKSPKRPASPSSPEHLPATPAESPAQRFEARIEDGKLYYDKRWYHKSQAIYLESKDNQKLSCVISSVGANEIWVRKTSDSTKMRIYLGQLQRGLFVIRRRSAA [SUDS3]”, the “solubility change mitosis (log2)” value in series [1] worked out at 0.238. For the same substance, the thermal stability score is 0.216 in series [2] (setting [5]) and 0.399 in series [2] (cell cycle stage: mitosis). Further, the melting temperature in series [3] (cell cycle stage: G1/S) was 49 °C; in series [3] (cell cycle stage: mitosis) it was 50.6 °C. For the same substance, in series [4], the “solubility in G1/S (log2)” value is 0.341.
Take “MPEINTNHLDKQQVQLLAEMCILIDENDNKIGAETKKNCHLNENIEKGLLHRAFSVFLFNTENKLLLQQRSDAKITFPGCFTNTCCSHPLSNPAELEESDALGVRRAAQRRLKAELGIPLEEVPPEEINYLTRIHYKAQSDGIWGEHEIDYILLVRKNVTLNPDPNEIKSYCYVSKEELKELLKKAASGEIKITPWFKIIAATFLFKWWDNLNHLNQFVDHEKIYRM [IDI1]”: in series [1], the “solubility change mitosis (log2)” value was determined as 0.0595. Also, the thermal stability score is 0.472 in series [2] (setting [5]) and -0.519 in series [2] (cell cycle stage: mitosis). Moreover, the melting temperature in series [3] (cell cycle stage: G1/S) was 54.1 °C; in series [3] (cell cycle stage: mitosis) it was 53.4 °C. Further, the “solubility in G1/S (log2)” value in series [4] is 0.145.
As to “MAVPGDAARVRDKPVHSGVSQAPTAGRDCHHRADPASPRDSGCRGCWGDLVLQPLRSSRKLSSALCAGSLSFLLALLVRLVRGEVGCDLEQCKEAAAAEEEEAAPGAEGGVFPGPRGGAPGGGARLSPWLQPSALLFSLLCAFFWMGLYLLRAGVRLPLAVALLAACCGGEALVQIGLGVGEDHLLSLPAAGVVLSCLAAATWLVLRLRLGVLMIALTSAVRTVSLISLERFKVAWRPYLAYLAGVLGILLARYVEQILPQSAEAAPREHLGSQLIAGTKEDIPVFKRRRRSSSVVSAEMSGCSSKSHRRTSLPCIPREQLMGHSEWDHKRGPRGSQSSGTSITVDIAVMGEAHGLITDLLADPSLPPNVCTSLRAVSNLLSTQLTFQAIHKPRVNPVTSLSENYTCSDSEESSEKDKLAIPKRLRRSLPPGLLRRVSSTWTTTTSATGLPTLEPAPVRRDRSTSIKLQEAPSSSPDSWNNPVMMTLTKSRSFTSSYAISAANHVKAKKQSRPGALAKISPLSSPCSSPLQGTPASSLVSKISAVQFPESADTTAKQSLGSHRALTYTQSAPDLSPQILTPPVICSSCGRPYSQGNPADEPLERSGVATRTPSRTDDTAQVTSDYETNNNSDSSDIVQNEDETECLREPLRKASACSTYAPETMMFLDKPILAPEPLVMDNLDSIMEQLNTWNFPIFDLVENIGRKCGRILSQVSYRLFEDMGLFEAFKIPIREFMNYFHALEIGYRDIPYHNRIHATDVLHAVWYLTTQPIPGLSTVINDHGSTSDSDSDSGFTHGHMGYVFSKTYNVTDDKYGCLSGNIPALELMALYVAAAMHDYDHPGRTNAFLVATSAPQAVLYNDRSVLENHHAAAAWNLFMSRPEYNFLINLDHVEFKHFRFLVIEAILATDLKKHFDFVAKFNGKVNDDVGIDWTNENDRLLVCQMCIKLADINGPAKCKELHLQWTDGIVNEFYEQGDEEASLGLPISPFMDRSAPQLANLQESFISHIVGPLCNSYDSAGLMPGKWVEDSDESGDTDDPEEEEEEAPAPNEEETCENNESPKKKTFKRRKIYCQITQHLLQNHKMWKKVIEEEQRLAGIENQSLDQTPQSHSSEQIQAIKEEEEEKGKPRGEEIPTQKPDQ [PDE3A]”, the “solubility change mitosis (log2)” value in series [1] is -0.179. For the same substance, the figures for the thermal stability score in series [2] (setting [5]) and in series [2] (cell cycle stage: mitosis) were -2.5 and -4.37, respectively. Also, the melting temperature in series [3] (cell cycle stage: G1/S) was 51.8 °C; in series [3] (cell cycle stage: mitosis), 49.6 °C. Besides, the “solubility in G1/S (log2)” value in series [4] was found to be 0.0669.
With “MIEMAAEKEPFLVPAPPPPLKDESGGGGGPTVPPHQEAASGELRGGTERGPGRCAPSAGSPAAAVGRESPGAAATSSSGPQAQQHRGGGPQAQSHGEARLSDPPGRAAPPDVGEERRGGGGTELGPPAPPRPRNGYQPHRPPGGGGGKRRNSCNVGGGGGGFKHPAFKRRRRVNSDCDSVLPSNFLLGGNIFDPLNLNSLLDEEVSRTLNAETPKSSPLPAKGRDPVEILIPKDITDPLSLNTCTDEGHVVLASPLKTGRKRHRHRGQHHQQQQAAGGSESHPVPPTAPLTPLLHGEGASQQPRHRGQNRDAPQPYELNTAINCRDEVVSPLPSALQGPSGSLSAPPAASVISAPPSSSSRHRKRRRTSSKSEAGARGGGQGSKEKGRGSWGGRHHHHHPLPAAGFKKQQRKFQYGNYCKYYGYRNPSCEDGRLRVLKPEWFRGRDVLDLGCNVGHLTLSIACKWGPSRMVGLDIDSRLIHSARQNIRHYLSEELRLPPQTLEGDPGAEGEEGTTTVRKRSCFPASLTASRGPIAAPQVPLDGADTSVFPNNVVFVTGNYVLDRDDLVEAQTPEYDVVLCLSLTKWVHLNWGDEGLKRMFRRIYRHLRPGGILVLEPQPWSSYGKRKTLTETIYKNYYRIQLKPEQFSSYLTSPDVGFSSYELVATPHNTSKGFQRPVYLFHKARSPSH [MEPCE]”, the “solubility change mitosis (log2)” value in series [1] turned out to be 0.364. The thermal stability score in series [2] (setting [5]) came out at 2.47; in series [2] (cell cycle stage: mitosis), 4.6. Moreover, the melting temperature in series [3] (cell cycle stage: G1/S) was found to be 47.8 °C; in series [3] (cell cycle stage: mitosis), 49.8 °C. Further, in series [4], the “solubility in G1/S (log2)” value was -0.115.

(Values after the supplement of paper PMC5998384.)
